In article PMC9828337 (Angewandte Chemie (International Ed. in English), 2022):

What was measured:
[1] = target: CurKC lyase domain (residues 1–217) (Thermomonospora curvata DSM43183, fluorophore label in the MST assays (position not given)); test: MST
[2] = target: T1, VenL lyase domain (residues 1–212); test: MST
T1 chain: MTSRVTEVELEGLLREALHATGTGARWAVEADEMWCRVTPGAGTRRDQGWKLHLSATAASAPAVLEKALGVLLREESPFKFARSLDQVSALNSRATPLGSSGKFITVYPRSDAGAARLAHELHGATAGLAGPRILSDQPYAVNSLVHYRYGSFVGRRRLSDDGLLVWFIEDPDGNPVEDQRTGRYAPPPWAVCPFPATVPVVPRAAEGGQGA

B1: VenL kinase domain (residues 213–513) (domain or fragment)
chain: DGSREARGAGAPVLLGGRFAVREAIRHTNKGGVYRGSDVRTGALVVIKEARPHVEADASGHDVRDWLRTEARTLERLRGTGLAPEPLALFEHGGHLFLAQQEVPGVALRTWVAEHFRDAGAERYRVDARAQVGRLVELVAAAHAHGCVLRDFTPGNVMVRPDGELRLIDLELAVLEGDAARPTRVGTPGFSAPERLTGAPVSPTGDYYSLGATACFVLAGKVPNLLPEEPATRAPEQRLAAWLSACAGPLRLPDGLAEMVLGLMKDAPAERWDPARAREALRRADRDDPVTGKPEDSKGSK
In the case of B1, the Kd [1] is reported as 24.3 ± 3.5 µM and the Kd [2] is reported as 32.3 ± 2.9 µM.
